# Reference: patent US20240182592A1 (CHIA TAI TIANQING PHARMACEUTICAL GROUP, published 2024)
# Substitutions are numbered along the chain they refer to. Like-named read-outs stand apart in the source and are kept apart here.
# T1: human BCMA protein (human, UniProt Q02223 1-54, limits assumed)
# T1 construct: also called hBCMA; Antigen BCMA
# T1 sequence (looked up): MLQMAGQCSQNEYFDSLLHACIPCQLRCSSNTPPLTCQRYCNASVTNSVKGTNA
# T2: human BCMA on cells (human, UniProt Q02223 1-184)
# T2 construct: whole, on cells; also called CHO-hBCMA cells; U266 cells
# T2 sequence (looked up): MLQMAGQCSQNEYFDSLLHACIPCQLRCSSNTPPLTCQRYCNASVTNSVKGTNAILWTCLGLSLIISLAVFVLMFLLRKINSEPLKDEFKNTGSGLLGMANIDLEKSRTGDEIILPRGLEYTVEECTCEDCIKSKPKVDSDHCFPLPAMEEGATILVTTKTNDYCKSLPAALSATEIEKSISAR
# B1: 1A10-V1 (antibody, human IgG1, V domains shown)
# VH: QVQLVESGGGLVQPGGSLRLSCAASGYSSNVACMAWYRQAPGKGLEWVATIVADFGTTNYAASVKGRFTISQDNSKNTVYLQMNSLRAEDTAVYYCAATQRGGIDWCDEINYWGQGTLVTVSS
# notes: Humanized VHH fused to human IgG1 Fc; also called humanized antibody 1A10-V1
# B2: 1A10-V2 (antibody, human IgG1, V domains shown)
# VH: B1 VH with G44E, L45R, A49S
# notes: Humanized VHH fused to human IgG1 Fc; also called humanized antibody 1A10-V2
# B3: anti-BCMA/anti-CD3 multispecific antibody PC1 (bispecific antibody, human IgG1)
# chain 1: QVQLVESGGGLVQPGGSLRLSCAASGYSSNVACMAWYRQAPGKGLEWVATIVADFGTTNYAASVKGRFTISQDNSKNTVYLQMNSLRAEDTAVYYCAATQRGGIDWCDEINYWGQGTLVTVSSGGGGSGGGGSQVQLVESGGGLVQPGGSLRLSCAASGFTFNSACMGWFRQAPGKGREGVSRIETGYGGTVYADSVKGRFTISRDNSKNTVYLQMNSLRAEDTAVYYCAAKRSWCTPTWWHELDYNYWGQGTQVTVSSGEPKSSDKTHTCPPCPAPEAAGGPSVFLFPPKPKDTLMISRTPEVTCVVVDVSHEDPEVKFNWYVDGVEVHNAKTKPREEQYNSTYRVVSVLTVLHQDWLNGKEYKCKVSNKALAAPIEKTISKAKGQPREPQVCTLPPSREEMTKNQVSLSCAVKGFYPSDIAVEWESNGQPENNYKTTPPVLDSDGSFFLVSKLTVDKSRWQQGNVFSCSVMHEALHNHYTQKSLSLSPGK
# chain 2: ELVVTQEPSLTTSPGGTVTLTCRSSTGAVTTSNYANWVQQKPGQAPRGLIGGTNKRAPGTPARFSGSLLGGKAALTITGVQPEDEAEYYCALWYSNLWVFGGGTKLTVLGGGGSGGGGSGGGGSEVQLVESGGGLVQPGGSLRLSCAASGFTFNTYAMNWVRQAPGKGLEWVARIRSKYNNYATYYADSVKDRFTISRDDSKNTAYLQMNNLKTEDTAMYYCVRHGNFGNSYVSWFAYWGQGTLVTVSSGEPKSSDKTHTCPPCPAPEAAGGPSVFLFPPKPKDTLMISRTPEVTCVVVDVSHEDPEVKFNWYVDGVEVHNAKTKPREEQYNSTYRVVSVLTVLHQDWLNGKEYKCKVSNKALAAPIEKTISKAKGQPREPQVYTLPPCREEMTKNQVSLWCLVKGFYPSDIAVEWESNGQPENNYKTTPPVLDSDGSFFLYSKLTVDKSRWQQGNVFSCSVMHEALHNRFTQKSLSLSPGK
# notes: Trivalent; two chains; human IgG1 knobs-into-holes Fc
# B4: 1A11-V1 (antibody, human IgG1, V domains shown)
# VH: QVQLVESGGGLVQPGGSLRLSCAASGFTFNSACMGWFRQAPGKGREGVSRIETGYGGTVYADSVKGRFTISRDNSKNTVYLQMNSLRAEDTAVYYCAAKRSWCTPTWWHELDYNYWGQGTQVTVSS
# notes: Humanized VHH fused to human IgG1 Fc; also called humanized antibody 1A11-V1
# B5: 1A11-V2 (antibody, human IgG1, V domains shown)
# VH: B4 VH with G44E, R87K
# notes: Humanized VHH fused to human IgG1 Fc; also called humanized antibody 1A11-V2
# B6: anti-BCMA/anti-CD3 bispecific control antibody Benchmark (bispecific antibody, human IgG1, kappa, L234A L235A)
# heavy 1: not shown
# light 1: not shown
# heavy 2: not shown
# light 2: EVQLLESGGGLVQPGGSLRLSCAASGFTFSTYAMNWVRQAPGKGLEWVSRIRSKYNNYATYYADSVKGRFTISRDDSKNTLYLQMNSLRAEDTAVYYCVRHGNFGNSYVSWFAYWGQGTLVTVSSASVAAPSVFIFPPSDEQLKSGTASVVCLLNNFYPREAKVQWKVDNALQSGNSQESVTEQDSKDSTYSLSSTLTLSKADYEKHKVYACEVTHQGLSSPVTKSFNRGEC
# notes: Control from Celgene (US20190263920A1): two anti-BCMA Fabs and one anti-CD3 Fab; also called Celgene BM; celgene BM
# Tests used:
# [1] = target: T1, human BCMA protein; experiment: SPR (Biacore T200), antibody captured by anti-hIgG, human BCMA as analyte, 1:1 model
# Description: The affinity of the test antibody for human BCMA protein was determined by Biacore T200 (GE) as follows:
# (§1) The response signals were detected in real time using Biacore software, and association and dissociation curves were obtained. The buffer used in the experiment was Biacore universal buffer (137 mM NaCl, 2.7 mM KCl, 10 mM Na₂HPO₄.12H₂O, 1.8 mM KH₂PO₄, 0.05% surfactant P-20 (w/v), pH 7.4). […] The flow rate in the flow cell was at 50 μL/min, the association was performed for 240 s, the dissociation was performed for 1400 s, the regeneration was performed using 3 M MgCl₂ (GE) for 60 s, and the baseline was stable. Results were obtained by calculation according to the affinity and kinetics 1:1 binding mode in biacore evaluation software.
# [2] = target: T2, human BCMA on cells; experiment: flow cytometry, NCI-H929 cells
# Description: (§2) NCI-H929 cells (BCMA+++), MM1S cells (BCMA++), and RPMI-8226 cells (BCMA+) in the logarithmic growth phase were taken, adjusted to a cell density of 5×10⁶-10×10⁶ cells/mL using RPMI medium (Hyclon, catalog No. SH30809.01) containing 2% FBS (fetal bovine serum), respectively, and seeded in a 96-well U-bottom cell culture plate (Costar, catalog No. 3799) at 50 μL per well. The test antibodies at different concentrations were prepared using the medium described above. […] The antibodies at different concentrations were added to the 96-well cell culture plate described above at 50 μL per well, mixed well and incubated at 4° C. for 1 h. The cells were washed with pre-cooled running buffer (MACS, catalog No. 130-091-221), and the supernatant was discarded. Pre-cooled fluorescent labeled goat anti-human IgG antibodies (Jackson, catalog No. 109-116-170) were added, and the cells were resuspended at 100 μL per well, mixed well and incubated at 4° C. for 30 min. After washing, 100 μL of pre-cooled running buffer was added to resuspend the cells. The cells were mixed well and collected while flowing on an Attune™ NxT flow cytometer, and the data was analyzed using Graphpad Prism5 software. FIGS. 7-9 and Table 11 show the binding ability of the anti-BCMA/anti-CD3 multispecific antibodies to NCI-H929 cells (BCMA+++), MM1S cells (BCMA++), and RPMI-8226 cells (BCMA+).
# [3] = target: T3, human CD3e (Acro, Cat. No. CDE-H5223) (human, UniProt P07766 23-126); experiment: SPR (Biacore T200), antibody captured by anti-hIgG, human CD3e as analyte, 1:1 model
# T3 construct: also called human CD3e protein; hCD3e
# T3 sequence (P07766 23-126 limits assumed): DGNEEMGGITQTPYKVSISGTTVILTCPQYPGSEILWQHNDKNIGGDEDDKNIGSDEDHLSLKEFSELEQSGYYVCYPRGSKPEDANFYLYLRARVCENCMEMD
# Description: (§3) The affinity of the test antibody for human CD3e or human BCMA protein was determined by Biacore T200 (GE) as follows:
# as §1, with “KH₂PO₄.” for “KH₂PO₄,”, “MgCl” for “MgCl₂”
# [4] = target: T2, human BCMA on cells; experiment: cell-based or functional assay
# [5] = target: T1, human BCMA protein; experiment: SPR (Biacore T200), antibody captured by anti-hIgG, human BCMA as analyte, 1:1 model; remark: listed apart in the source
# Description: as §3
# as §1, with “KH₂PO₄.” for “KH₂PO₄,”, “MgCl” for “MgCl₂”
# [6] = target: T2, human BCMA on cells; experiment: flow cytometry, MM1S cells
# Description: as §2
# [7] = target: T2, human BCMA on cells; experiment: cell-based or functional assay; remark: listed apart in the source
# [8] = target: T2, human BCMA on cells; experiment: cell-based or functional assay; remark: listed apart in the source
# [9] = target: T4, T cell surface CD3 (human, UniProt P07766 23-207); experiment: flow cytometry, human CD3+ T cells
# T4 construct: whole, on cells; also called CD3^+ T cells
# T4 sequence (P07766 23-207): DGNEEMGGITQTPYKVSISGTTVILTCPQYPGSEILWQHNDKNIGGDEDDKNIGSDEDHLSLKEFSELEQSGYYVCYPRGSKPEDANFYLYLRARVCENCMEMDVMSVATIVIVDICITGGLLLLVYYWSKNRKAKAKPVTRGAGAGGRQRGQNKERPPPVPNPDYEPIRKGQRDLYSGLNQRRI
# Description: Human PBMC cells were sorted for CD3⁺ T cells using CD3 magnetic beads (Miltenyi, catalog No. 130-097-043): the cryopreserved PBMCs were thawed, and washed by centrifugation twice for counting. Running buffer (MACS, catalog No. 130-091-221) was added in a cell-to-buffer ratio of 10⁷:80 μL, CD3 beads were added in a cell-to-bead ratio of 10⁷:20 μL, and the mixture was mixed well and incubated at 4° C. for 15 min. The cells were washed with buffer in a cell-to-buffer ratio of 10⁷:1-2 mL. After centrifugation, the supernatant was discarded, and 500 μL of buffer was added to resuspend the cell pellet. The LS sorting column (Miltenyi, catalog No. 130-042-401) was placed on the MidiMACS Starting Kit (LS) magnetic rack (Miltenyi, catalog No. 130-091-051). After rinsing, the cell suspension was added and washed thrice. The LS sorting column was removed from the magnetic rack and placed on a clean centrifuge tube and 5 mL buffer was added to collect the sorted CD3⁺ T cells. After counting, the CD3⁺ T cells were adjusted to a cell density of 5×10⁶-10×10⁶ cells/mL using RPMI medium (Hyclone, catalog No. SH30809.01) containing 2% FBS (fetal bovine serum) and seeded in a 96-well U-bottom cell culture plate (Costar, catalog No. 3799) at 50 μL per well. The test antibodies at different concentrations were prepared using the medium described above. […] The antibodies at different concentrations were added to the 96-well cell culture plate described above at 50 μL per well, mixed well and incubated at 4° C. for 1 h. The cells were washed with pre-cooled running buffer (MACS, catalog No. 130-091-221), and the supernatant was discarded. Pre-cooled fluorescent labeled goat anti-human IgG antibodies (Jackson, catalog No. 109-116-170) were added, and the cells were resuspended at 100 μL per well, mixed well and incubated at 4° C. for 30 min. After washing, 100 μL of pre-cooled running buffer was added to resuspend the cells.
Binder,Kd [1],EC50 [2],Top(MFI) [2],Kd [3],"Lysis EC50, RPMI-8226 cells with human PBMCs (E:T 10:1, 24 h, LDH release) [4]","Maximum lysis rate, RPMI-8226 cells with human PBMCs [4]",Kd [5],EC50 [6],Top(MFI) [6],"Lysis EC50, NCI-H929 cells with human PBMCs (E:T 10:1, 24 h, LDH release) [7]","Maximum lysis rate, NCI-H929 cells with human PBMCs [7]","Lysis EC50, MM1S cells with human PBMCs (E:T 10:1, 24 h, LDH release) [8]","Maximum lysis rate, MM1S cells with human PBMCs [8]",EC50 [9],Top(MFI) [9]
B1,0.337 nM,,,,,,,,,,,,,,
B2,1.31 nM,,,,,,,,,,,,,,
B3,,1.26 nM,226000 MFI,1.43 nM,0.007 nM,29%,0.0396 nM,0.35 nM,100000 MFI,0.0674 nM,36%,0.0084 nM,26%,485 nM,92900 MFI
B4,5.05 nM,,,,,,,,,,,,,,
B5,4.37 nM,,,,,,,,,,,,,,
B6,,0.821 nM,166000 MFI,1.6 nM,0.271 nM,29%,0.821 nM,0.381 nM,71400 MFI,0.0444 nM,41%,0.0847 nM,23%,18.1 nM,93500 MFI
